Laboratory results as given in patent publication US20200109211A1 (ELSALYS BIOTECH, published 2020).
One block for each binder: values may come before it.

Columns and labels:
[1] = molecular target: T1, human CD160 (CD160 GPI isoform) on cells (human, UniProt O95971 25-159, GPI anchor); assay: cell-based or functional assay
T1 sequence (looked up): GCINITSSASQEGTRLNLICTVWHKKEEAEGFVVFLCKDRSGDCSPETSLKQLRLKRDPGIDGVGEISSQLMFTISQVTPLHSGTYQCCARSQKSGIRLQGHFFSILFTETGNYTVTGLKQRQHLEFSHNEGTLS

[2] = molecular target: T2, recombinant human CD160 protein, soluble form, with a C-terminal tag of 6 histidine residues (R&D SYSTEMS) (human, UniProt O95971 27-159, limits assumed, biotinylated with EZ-Link sulfo-NHS-LC-biotin for BLI and ELISA; not biotinylated when immobilised on the CM5 chip for SPR); assay: BLI, biotinylated CD160 at 10 nM on streptavidin sensor, antibody 3.13-100 nM
T2 construct: domain: soluble form; Bought protein; also called hCD160-his; biotinylated CD160
T2 sequence: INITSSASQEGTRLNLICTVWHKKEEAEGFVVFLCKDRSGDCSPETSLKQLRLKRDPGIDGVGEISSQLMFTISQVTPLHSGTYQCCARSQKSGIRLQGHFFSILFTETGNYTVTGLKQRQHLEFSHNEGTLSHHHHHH
Description: (§1) All the experiments were carried out at 30° C. in the running buffer recommended by Fortebio (PBS with 0.1% (p/v) of bovine serum albumin (BSA) and 0.02% (v/v) Tween-20). This buffer was also used for diluting the various ligands and analytes. The samples deposited in a 96-well microplate (cat #738-0026, Dutscher) were shaken at 1000 revolutions per minute.
(§2) The dissociation constants and the association (kₒₙ) and dissociation (kdis) rate constants for each antibody were calculated by applying a 1:1 interaction model, with overall mathematical modelling of curves (fit) (Rmax bound by the sensor) on the ForteBio 9.0 data analysis software.

[3] = molecular target: T2, recombinant human CD160 protein, …; assay: BLI
[4] = molecular target: T2, recombinant human CD160 protein, …; assay: BLI (repeats Table 8)
[5] = molecular target: T2, recombinant human CD160 protein, …; assay: SPR (Biacore), design close to Example 2
[6] = molecular target: T2, recombinant human CD160 protein, …; assay: BLI, biotinylated CD160 at 10 nM on streptavidin sensor, antibody 3.13-100 nM; remark: listed apart in the source
[7] = molecular target: T2, recombinant human CD160 protein, …; assay: BLI (repeats Table 7)
[8] = molecular target: T2, recombinant human CD160 protein, …; assay: BLI, biotinylated CD160 at 10 nM on streptavidin sensor, antibody 3.13-100 nM; remark: listed apart in the source
Description: as §2

[9] = molecular target: T2, recombinant human CD160 protein, …; assay: BLI (Octet K2), biotinylated hCD160-His on streptavidin sensor, antibody as analyte
Description: as §1
Between the measurements, the surfaces of the biosensor were regenerated by exposing them to 3 cycles of 5 sec in 10 mM glycine, pH 2, followed by 5 sec in running buffer. The association and dissociation phases were measured for 300 seconds. All the measurements were corrected for the basic drift by subtracting a reference well with a ligand subjected only to the running buffer.
as §2

[10] = molecular target: T2, recombinant human CD160 protein, …; assay: BLI (repeats Table 9)
[11] = molecular target: T2, recombinant human CD160 protein, …; assay: BLI, biotinylated CD160 at 10 nM on streptavidin sensor, antibody 3.13-100 nM; remark: listed apart in the source

Kd [4]: 2.91 nM
koff [4]: 0.00148 s⁻¹
kon [4]: 507000 M⁻¹ s⁻¹
Kd [5]: 14.5 nM
koff [5]: 0.00297 s⁻¹
kon [5]: 205000 M⁻¹ s⁻¹
Kd [6]: 2.91 nM
koff [6]: 0.00148 s⁻¹
kon [6]: 507000 M⁻¹ s⁻¹
B5: H7 IgG4 S228P/R409K/H310A/H435Q (antibody)
heavy: QVQLVQSGAEVKKPGASVKVSCKASGYTFTDYWMQWIRQAPGQGLEWIGSIYPGDDDARYTQKFRGRATLTADKSTSTAYMELSSLRSEDTAVYYCARRGIAAVVGGFDYWGQGTTLTVSSASTKGPSVFPLAPCSRSTSESTAALGCLVKDYFPEPVTVSWNSGALTSGVHTFPAVLQSSGLYSLSSVVTVPSSSLGTKTYTCNVDHKPSNTKVDKRVESKYGPPCPPCPAPEFLGGPSVFLFPPKPKDTLMISRTPEVTCVVVDVSQEDPEVQFNWYVDGVEVHNAKTKPREEQFNSTYRVVSVLTVLAQDWLNGKEYKCKVSNKGLPSSIEKTISKAKGQPREPQVYTLPPSQEEMTKNQVSLTCLVKGFYPSDIAVEWESNGQPENNYKTTPPVLDSDGSFFLYSKLTVDKSRWQEGNVFSCSVMHEALHNQYTQKSLSLSLG
light: EIVLTQSPATLSLSPGERATLSCRASQSISNHLHWYQQKPGQAPRLLIKYASQSISGIPARFSGSGSGTDFTLTISSLEPEDFAVYFCQQSNSWPLTFGGGTKVEIKRTVAAPSVFIFPPSDEQLKSGTASVVCLLNNFYPREAKVQWKVDNALQSGNSQESVTEQDSKDSTYSLSSTLTLSKADYEKHKVYACEVTHQGLSSPVTKSFNRGEC
notes: also called ELB01102; H7 IgG4 H310A-H435Q

Binding response, at 50 nM of anti-CD160 [9]: 0.41 nm (arbitrary units)
Kd [9]: 14.3 nM
koff [9]: 0.00297 s⁻¹
kon [9]: 208000 M⁻¹ s⁻¹
B6: chimerized antibody issued from CL1-R2 in the human IgG1 format (antibody, V domains shown)
VH: QVHLQQSGAELARPGASVKLSCKASGYTFTDYWMQWIKQRPGQGLEWIGSIYPGDDDARYTQKFRGKATLTADKSSSTAYMQLSSLASEDSAVYYCARRGIAAVVGGFDYWGQGTTLTVSS
VL: DIVLTQSPATLSVTPGNSVSLSCRASQSISNHLHWYQQKSHESPRLLIKYASQSISGIPSRFSGSGSGTDFTLSINSVETEDFGMYFCQQSNSWPLTFGAGTKLELK
notes: also called chIgG1; chimeric IgG1

Binding response, at 50 nM of anti-CD160 [9]: 0.41 nm (arbitrary units)
Kd [9]: 14.8 nM
koff [9]: 0.00323 s⁻¹
kon [9]: 218000 M⁻¹ s⁻¹
B7: chimerized antibody issued from CL1-R2 in the human IgG4 format (antibody, V domains shown)
VH: QVHLQQSGAELARPGASVKLSCKASGYTFTDYWMQWIKQRPGQGLEWIGSIYPGDDDARYTQKFRGKATLTADKSSSTAYMQLSSLASEDSAVYYCARRGIAAVVGGFDYWGQGTTLTVSS
VL: DIVLTQSPATLSVTPGNSVSLSCRASQSISNHLHWYQQKSHESPRLLIKYASQSISGIPSRFSGSGSGTDFTLSINSVETEDFGMYFCQQSNSWPLTFGAGTKLELK
notes: also called chIgG4; chimeric IgG4

Binding response, at 50 nM of anti-CD160 [9]: 0.6 nm (arbitrary units)
Kd [9]: 15.4 nM
koff [9]: 0.00283 s⁻¹
kon [9]: 183000 M⁻¹ s⁻¹
B8: CL1-R2 murine monoclonal anti-human CD160 antibody (antibody, V domains shown)
VH: QVHLQQSGAELARPGASVKLSCKASGYTFTDYWMQWIKQRPGQGLEWIGSIYPGDDDARYTQKFRGKATLTADKSSSTAYMQLSSLASEDSAVYYCARRGIAAVVGGFDYWGQGTTLTVSS
VL: DIVLTQSPATLSVTPGNSVSLSCRASQSISNHLHWYQQKSHESPRLLIKYASQSISGIPSRFSGSGSGTDFTLSINSVETEDFGMYFCQQSNSWPLTFGAGTKLELK
notes: Murine IgG1; also called parental CL1-R2; murine anti-CD160 IgG1

Further lines, the binder ahead of its results:

B1: F04 in the IgG1 E345K format (antibody)
heavy: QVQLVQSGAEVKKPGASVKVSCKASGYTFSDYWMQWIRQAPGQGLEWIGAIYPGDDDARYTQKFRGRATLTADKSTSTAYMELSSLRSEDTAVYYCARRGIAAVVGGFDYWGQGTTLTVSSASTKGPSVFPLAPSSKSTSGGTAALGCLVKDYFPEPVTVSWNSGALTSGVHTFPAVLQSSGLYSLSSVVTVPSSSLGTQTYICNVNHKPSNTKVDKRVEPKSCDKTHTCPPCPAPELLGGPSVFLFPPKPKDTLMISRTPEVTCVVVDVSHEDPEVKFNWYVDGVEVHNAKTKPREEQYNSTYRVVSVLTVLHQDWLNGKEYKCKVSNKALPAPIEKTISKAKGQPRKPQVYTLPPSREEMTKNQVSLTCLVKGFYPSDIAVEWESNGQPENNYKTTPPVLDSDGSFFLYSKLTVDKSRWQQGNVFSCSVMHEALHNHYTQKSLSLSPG
light: EIVLTQSPATLSLSPGERATLSCRASQSISNHLHWYQQKPGQAPRLLIKYASQSISGIPARFSGSGSGTDFTLTISSLEPEDFAVYFCQQSNSWPLTFGGGTKVEIKRTVAAPSVFIFPPSDEQLKSGTASVVCLLNNFYPREAKVQWKVDNALQSGNSQESVTEQDSKDSTYSLSSTLTLSKADYEKHKVYACEVTHQGLSSPVTKSFNRGEC
notes: also called ELB02113
EC50 of IFN-gamma production by NK cells, additional improvement against the IgG1 variants [1]: 2 logs
EC50 of IFN-gamma production by NK cells, improvement against ELB02101 [1]: 4 logs
Kd [2]: 1.55 nM
koff [2]: 0.000662 s⁻¹
kon [2]: 427000 M⁻¹ s⁻¹

B2: F04 IgG4 S228P/R409K (antibody)
heavy: QVQLVQSGAEVKKPGASVKVSCKASGYTFSDYWMQWIRQAPGQGLEWIGAIYPGDDDARYTQKFRGRATLTADKSTSTAYMELSSLRSEDTAVYYCARRGIAAVVGGFDYWGQGTTLTVSSASTKGPSVFPLAPCSRSTSESTAALGCLVKDYFPEPVTVSWNSGALTSGVHTFPAVLQSSGLYSLSSVVTVPSSSLGTKTYTCNVDHKPSNTKVDKRVESKYGPPCPPCPAPEFLGGPSVFLFPPKPKDTLMISRTPEVTCVVVDVSQEDPEVQFNWYVDGVEVHNAKTKPREEQFNSTYRVVSVLTVLAQDWLNGKEYKCKVSNKGLPSSIEKTISKAKGQPREPQVYTLPPSQEEMTKNQVSLTCLVKGFYPSDIAVEWESNGQPENNYKTTPPVLDSDGSFFLYSKLTVDKSRWQEGNVFSCSVMHEALHNQYTQKSLSLSLG
light: EIVLTQSPATLSLSPGERATLSCRASQSISNHLHWYQQKPGQAPRLLIKYASQSISGIPARFSGSGSGTDFTLTISSLEPEDFAVYFCQQSNSWPLTFGGGTKVEIKRTVAAPSVFIFPPSDEQLKSGTASVVCLLNNFYPREAKVQWKVDNALQSGNSQESVTEQDSKDSTYSLSSTLTLSKADYEKHKVYACEVTHQGLSSPVTKSFNRGEC
notes: also called ELB01106
Gain in KD/respective IgG [3]: 1.8 fold
Kd [4]: 1.63 nM
koff [4]: 0.000736 s⁻¹
kon [4]: 453000 M⁻¹ s⁻¹
Gain in KD/respective IgG [5]: 3.5 fold
Kd [5]: 4.1 nM
koff [5]: 0.000721 s⁻¹
kon [5]: 176000 M⁻¹ s⁻¹
Kd [6]: 1.63 nM
koff [6]: 0.000736 s⁻¹
kon [6]: 453000 M⁻¹ s⁻¹

B3: H7 IgG4 S228P/R409K (antibody)
heavy: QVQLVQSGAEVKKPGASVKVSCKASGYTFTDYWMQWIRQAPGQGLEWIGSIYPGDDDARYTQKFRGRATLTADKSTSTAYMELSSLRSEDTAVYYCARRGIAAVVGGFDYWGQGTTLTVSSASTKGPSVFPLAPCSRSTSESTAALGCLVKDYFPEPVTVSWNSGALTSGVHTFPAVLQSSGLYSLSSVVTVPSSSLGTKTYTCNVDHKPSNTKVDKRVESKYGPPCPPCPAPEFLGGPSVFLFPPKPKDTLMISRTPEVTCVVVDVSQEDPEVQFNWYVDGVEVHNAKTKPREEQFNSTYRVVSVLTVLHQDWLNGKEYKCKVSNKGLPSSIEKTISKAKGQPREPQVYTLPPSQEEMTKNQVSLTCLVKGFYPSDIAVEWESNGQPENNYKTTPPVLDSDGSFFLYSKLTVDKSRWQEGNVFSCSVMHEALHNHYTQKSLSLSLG
light: EIVLTQSPATLSLSPGERATLSCRASQSISNHLHWYQQKPGQAPRLLIKYASQSISGIPARFSGSGSGTDFTLTISSLEPEDFAVYFCQQSNSWPLTFGGGTKVEIKRTVAAPSVFIFPPSDEQLKSGTASVVCLLNNFYPREAKVQWKVDNALQSGNSQESVTEQDSKDSTYSLSSTLTLSKADYEKHKVYACEVTHQGLSSPVTKSFNRGEC
notes: also called ELB01101; H7 IgG4 WT
Kd [7]: 2.61 nM
koff [7]: 0.00123 s⁻¹
kon [7]: 469000 M⁻¹ s⁻¹
Kd [5]: 13.1 nM
koff [5]: 0.00285 s⁻¹
kon [5]: 218000 M⁻¹ s⁻¹
Kd [8]: 2.61 nM
koff [8]: 0.00123 s⁻¹
kon [8]: 469000 M⁻¹ s⁻¹
Binding response, at 50 nM of anti-CD160 [9]: 0.6 nm (arbitrary units)
Kd [9]: 4.49 nM
koff [9]: 0.00157 s⁻¹
kon [9]: 350000 M⁻¹ s⁻¹

B4: F04 in the IgG1 format (antibody)
heavy: not shown
light: EIVLTQSPATLSLSPGERATLSCRASQSISNHLHWYQQKPGQAPRLLIKYASQSISGIPARFSGSGSGTDFTLTISSLEPEDFAVYFCQQSNSWPLTFGGGTKVEIKRTVAAPSVFIFPPSDEQLKSGTASVVCLLNNFYPREAKVQWKVDNALQSGNSQESVTEQDSKDSTYSLSSTLTLSKADYEKHKVYACEVTHQGLSSPVTKSFNRGEC
notes: also called ELB02103
Gain in KD/respective IgG [3]: 2.1 fold
EC50 of NK cell activation (IFN-γ, CD69), improvement against ELB02101 [1]: 2 to 3 logs
Kd [10]: 1.43 nM
koff [10]: 0.000531 s⁻¹
kon [10]: 371000 M⁻¹ s⁻¹
Gain in KD/respective IgG [5]: 3.3 fold
Kd [5]: 3.6 nM
koff [5]: 0.000726 s⁻¹
kon [5]: 200000 M⁻¹ s⁻¹
Kd [11]: 1.43 nM
koff [11]: 0.000531 s⁻¹
kon [11]: 371000 M⁻¹ s⁻¹
